Data from patent publication US7378503 (dated 2008).
Substitutions are numbered along the chain they refer to. Values belong to the binder of their own block, whether it stands above or below them.

How the values were obtained:
[1] = target: IGF-IR extracellular domain (human, UniProt P08069); test: SPR
mouse IGF-IR = mouse IGF-IR (mouse, UniProt Q60751); test: other, immunoprecipitation
rat IGF-IR = rat IGF-IR (rat, UniProt P24062); test: other, immunoprecipitation
Sequence of rat IGF-IR (P24062 31-936): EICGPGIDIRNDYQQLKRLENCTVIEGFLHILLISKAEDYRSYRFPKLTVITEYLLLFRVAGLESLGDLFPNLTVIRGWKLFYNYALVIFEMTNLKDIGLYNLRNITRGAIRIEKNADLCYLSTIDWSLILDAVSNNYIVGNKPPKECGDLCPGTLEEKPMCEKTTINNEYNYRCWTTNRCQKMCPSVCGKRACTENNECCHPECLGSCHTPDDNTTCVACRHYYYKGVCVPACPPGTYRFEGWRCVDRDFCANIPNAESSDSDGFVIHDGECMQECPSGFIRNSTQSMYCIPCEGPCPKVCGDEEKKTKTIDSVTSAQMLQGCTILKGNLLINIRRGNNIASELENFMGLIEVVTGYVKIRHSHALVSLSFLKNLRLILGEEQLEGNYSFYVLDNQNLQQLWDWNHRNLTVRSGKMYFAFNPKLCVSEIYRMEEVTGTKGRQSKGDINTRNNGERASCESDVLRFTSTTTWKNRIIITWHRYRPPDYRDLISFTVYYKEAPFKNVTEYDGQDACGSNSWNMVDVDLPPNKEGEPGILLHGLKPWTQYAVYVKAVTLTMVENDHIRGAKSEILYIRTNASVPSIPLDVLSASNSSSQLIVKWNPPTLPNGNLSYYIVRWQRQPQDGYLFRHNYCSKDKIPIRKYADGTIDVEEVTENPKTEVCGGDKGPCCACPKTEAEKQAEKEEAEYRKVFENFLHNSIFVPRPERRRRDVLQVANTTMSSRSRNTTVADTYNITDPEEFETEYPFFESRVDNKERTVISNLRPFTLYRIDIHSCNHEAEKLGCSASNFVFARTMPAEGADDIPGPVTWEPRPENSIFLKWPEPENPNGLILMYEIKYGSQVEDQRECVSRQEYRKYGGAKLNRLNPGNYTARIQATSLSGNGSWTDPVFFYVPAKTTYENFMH

Sequence of mouse IGF-IR (Q60751 31-936): as the sequence (P24062 31-936) above, with G271D, F629Y, L714M counted along it

Kd [1]: 0.194 nM
B1: Antibody 23 (antibody, V domains shown)
VH: EVQLVQSGGGLVHPGGSLRLSCAGSGFTFSNYAMYWVRQAPGKGLEWVSAIGSGGGTYYADSVKGRFTISRDNAKNSLYLQMNSLRAEDMAVYHCARAPNWGSEAFDIWGQGTMVTVSS
VL: DIQMTQSPSSLSASVGDRVTITCRASQGISSWLAWYQQKPEKAPKSLIYAASSLQSGVPSRFSGSGSGTDFTLTISSLQPEDFATYYCQQYNSYPITFGQGTRLEIK

Kd [1]: 2.01 nM
B2: Antibody 8 (antibody, V domains shown)
VH: B1 VH with S30R, N31S, H94Y, E104D
VL: B1 VL with I96P, Q100P, R103K, L104V, E105D

Kd [1]: 0.397 nM | binding result (mouse IGF-IR): no binding | binding result (rat IGF-IR): no binding
B3: Antibody 1A (antibody, V domains shown)
VH: B1 VH with S30R, H94Y, E104D
VL: B1 VL with I96P, Q100P, R103K, L104V, E105D
